Experimental data: patent US8524664B2, “Methods of treating overproduction of cortisol using ACTH antagonist peptides” (Colorado Seminary, Which owns and Operates The Univeristy …, priority 2011, dated 2013)
Entries after “also recorded” stand apart in the source; their conditions may differ. Like-named read-outs stand apart in the source and are kept apart here. One block for each substance: values may come before it.

Legend:
MC2R [1] = biological target: T1, MC2R (Homo sapiens, UniProt Q01718); assay: Inhibition of ACTH(1-24)-dependent hMC2R activation by co-incubated analog: cAMP in transfected CHO cells; assay type: cell-based; set-up: host or cells: CHO cells, transient transfection, pcDNA3.1
Experimental: (§1) FIG. 1. Inhibition of ACTH(1-24) by ACTH(15-24) peptide. For all experiments, Chinese Hamster Ovary (CHO) cells were transiently transfected with a human melanocortin receptor gene construct (MC2R for FIGS. 1-3) and a mouse MRAP1 gene, as described in the Examples section. Two days later, individual wells of transfected CHO cells (10^5 cells per well) were incubated with ACTH(1-24) at concentrations ranging from 10^−6 to 10^−12 M. For these experiments, each concentration of ACTH(1-24) was co-incubated with either no KKRRPVKVYP (SEQ ID NO:1) (filled circle), 10^−6 M KKRRPVKVYP (SEQ ID NO:1) (filled diamond), 10^−7 M KKRRPVKVYP (SEQ ID NO:1) (half-filled square), 10^−8 KKRRPVKVYP (SEQ ID NO:1) (circle in square), or 10^−9 M KKRRPVKVYP (SEQ ID NO:1) (open square). After a 15 minute incubation, the amount of cAMP produced in each well of CHO cells was measured. Each data point is a minimum of n=3. […] The ACTH analog ACTH(11-24) [KPVGKKRRPVKVYP; SEQ ID NO:7] at a concentration of 10^−6 M produced a 50% inhibition of ACTH(1-24) stimulation, but had no effect on ACTH(1-24) stimulation when tested at a concentration of 10^−7 M.
FIG. 2. Dose response curve for ACTH analog AT814. AT814 is a previously-described ACTH inhibitor (WO 2006/052468). For this experiment, individual wells of transfected CHO cells (as described for FIG. 1) were incubated with ACTH(1-24) at concentrations ranging from 10^−6 to 10^−12 M alone (open circle) or ACTH(1-24) and AT814 at a concentration of 10^−6 M (open square).
FIG. 3. Dose response curve for ACTH analog AT814. […] Open circles: ACTH(1-24) alone; open squares: ACTH(1-24)+AT814 (10^−7 M).
(§2) To test this hypothesis, a human MC2R gene construct was transiently co-transfected with a mouse MCR2R accessory protein 1 (MRAP1) gene into CHO cells and subsequently, cAMP production was measured.
(§3) Human hMC2R, Genbank Accession No. AY225229.1, was synthesized by GenScript with a V-5 epitope tag and inserted into a pcDNA3.1 vector. Mouse (Mus musculus) mMRAP1, Genbank Accession No. NM_029844, was also synthesized by GenScript with a FLAG epitope tag and inserted into pcDNA3.1 vectors.
(§4) The experiments were all done in transiently transfected CHO cells. The CHO cells were grown at 37° C. in a humidified 5% CO2 incubator in Kaighn's Modification of Ham's F-12 (2 mM glutamine, 1500 mg/L bicarbonate) with 10% fetal bovine serum, 5 mL pen/strep, and 1 mL normocin.
(§5) In order to functionally express hMC2R in heterologous cells, like CHO cells, the hMC2R construct must be co-transfected with a mammalian MRAP (melanocortin receptor accessory protein; Hinkle, P. M. and Sebag, J. A. (2009) Structure and function of the melanocortin 2 receptor accessory protein. Mol. Cell. Endocrinol. 300:25-31). CHO cells were transfected with 2 μg of hMC2R and mMRAP using a Cell Line Nucleofector Kit (Amaxa, Inc.) with solution T and program U-023. The cells were then plated on a white, 96-well plate a density of 1×10^5 cells per well. 48 hours after transfection, cells were stimulated with the appropriate ligands in serum-free CHO media for 15 minutes at 37° C. at concentrations ranging from 10^−5 M to 10^−10 M. After a 15 minute incubation, a direct cAMP EIA kit (Assay Designs, Ann Arbor, Mich.) was used to measure cAMP in the CHO cells.
(§6) All experimental treatments were performed in no less than triplicate, and then corrected for control values, which were obtained by using transfected cells that were left unstimulated. In each of the assays, maximal activation levels were between three to 10 times the control level. Corrected values were normalized to 100 nM ACTH activation. Average values and standard errors of the mean were graphed using KaleidaGraph software, and the […] value for each ligand was determined.
Target sequence in this assay (Q01718 whole entry): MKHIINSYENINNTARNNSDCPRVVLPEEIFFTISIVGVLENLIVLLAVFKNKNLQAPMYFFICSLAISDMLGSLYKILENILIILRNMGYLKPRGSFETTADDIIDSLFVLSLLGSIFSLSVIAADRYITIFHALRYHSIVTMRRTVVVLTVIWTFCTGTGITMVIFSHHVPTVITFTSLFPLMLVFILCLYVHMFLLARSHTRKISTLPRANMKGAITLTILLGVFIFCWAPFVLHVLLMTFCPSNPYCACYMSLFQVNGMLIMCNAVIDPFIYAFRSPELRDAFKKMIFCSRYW
Target sequence in this assay (Q9D159 whole entry partner): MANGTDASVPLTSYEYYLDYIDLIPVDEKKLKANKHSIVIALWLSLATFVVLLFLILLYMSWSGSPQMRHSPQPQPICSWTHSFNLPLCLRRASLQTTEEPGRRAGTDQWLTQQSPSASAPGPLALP

MC2R [2] = biological target: T1, MC2R; assay: Activation of hMC2R by ACTH analogs: cAMP production in CHO cells co-transfected with hMC2R and mouse MRAP1; assay type: cell-based; set-up: host or cells: CHO cells, transient transfection, pcDNA3.1; conditions: 10^-6 to 10^-12 M
Target sequence in this assay (Q01718 whole entry): as the sequence (Q01718 whole entry) above
Target sequence in this assay (Q9D159 whole entry partner): as the sequence (Q9D159 whole entry partner) above

MC2R [3] = biological target: T1, MC2R; assay: as above; assay type: cell-based; set-up: host or cells: CHO cells, transient transfection, pcDNA3.1; conditions: for MC2R activation relative to full-length ACTH / MC2R activation relative to full-length ACTH: fold drop in activity: analog alone, transfected CHO cells, cAMP after 15 min
Experimental: as §1, §2, §3, §4, §5, §6
Target sequence in this assay (Q01718 whole entry): as the sequence (Q01718 whole entry) above
Target sequence in this assay (Q9D159 whole entry partner): as the sequence (Q9D159 whole entry partner) above

MC2R [4] = biological target: T1, MC2R; conditions: from previous studies / literature, cited from earlier work
Target sequence in this assay (Q01718 whole entry, species assumed): as the sequence (Q01718 whole entry) above
Target sequence in this assay (Q8TCY5 whole entry partner, species assumed): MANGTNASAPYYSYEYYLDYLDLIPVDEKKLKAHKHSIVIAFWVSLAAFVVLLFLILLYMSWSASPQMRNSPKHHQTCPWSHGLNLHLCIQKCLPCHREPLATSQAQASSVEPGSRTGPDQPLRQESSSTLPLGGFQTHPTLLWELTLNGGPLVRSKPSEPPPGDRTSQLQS

human MC4R = biological target: T2, human MC4R (Homo sapiens, UniProt P32245); assay: Activation of human MC4R in hMC4R-transfected CHO cells (cAMP production); assay type: cell-based; conditions: analog at 10^-6 to 10^-12 M
T2 construct: expressed in transfected cells; host or cells: CHO cells, pcDNA3.1
Experimental: FIG. 4. Activation of human MC4R by ACTH analog AT814. Because AT814 has the HFRW (SEQ ID NO:8) motif, the hypothesis that this analog could activate the human MC4 receptor was tested. CHO cells were transfected with a human MC4R cDNA construct in a pcDNA3.1 vector.

[5] = analog at 10^-6 M co-incubated with ACTH(1-24) 10^-6 to 10^-12 M
[6] = analog at 10^-7 M co-incubated with ACTH(1-24) 10^-6 to 10^-12 M
[7] = analog at 10^-8 M co-incubated with ACTH(1-24)

T2 sequence (P32245 whole entry): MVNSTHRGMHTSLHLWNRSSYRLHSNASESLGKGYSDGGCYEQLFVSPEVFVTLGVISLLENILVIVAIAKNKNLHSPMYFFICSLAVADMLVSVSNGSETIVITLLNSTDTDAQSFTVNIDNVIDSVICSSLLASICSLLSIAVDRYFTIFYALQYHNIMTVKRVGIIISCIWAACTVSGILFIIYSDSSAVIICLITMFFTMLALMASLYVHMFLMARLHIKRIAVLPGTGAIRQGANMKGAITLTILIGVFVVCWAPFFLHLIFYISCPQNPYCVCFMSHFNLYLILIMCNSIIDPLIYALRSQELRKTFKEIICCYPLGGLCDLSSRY

inhibition of ACTH(1-24) activation of hMC2R (MC2R [1]; [5]): did not block
Substance: KKRRPAAAA (synthetic adrenocorticotropin hormone (ACTH) analog)

activation of hMC2R (cAMP production) by analog incubated alone (MC2R [2]): did not activate
inhibition of ACTH(1-24) activation of hMC2R (MC2R [1]; [5]): complete blockage
inhibition of ACTH(1-24) activation of hMC2R (MC2R [1]; analog at 10^-6 M co-incubated with ACTH(1-24) 10^-6 to 10^-12 M, listed as ACTH(15-24)): completely blocked
inhibition of ACTH(1-24) activation of hMC2R (MC2R [1]; [6]): complete blockage
inhibition of ACTH(1-24) activation of hMC2R (MC2R [1]; analog at 10^-7 M co-incubated with ACTH(1-24) 10^-6 to 10^-12 M, listed as ACTH(15-24)): completely blocked
drop in hMC2R activation by ACTH(1-24) (MC2R [1]; [7]): 34±5%
inhibition of ACTH(1-24) activation of hMC2R (MC2R [1]; [7]): partial blockage
inhibition of ACTH(1-24) activation of hMC2R (MC2R [1]; analog at 10^-9 M co-incubated with ACTH(1-24)): no effect
MC2R activation relative to full-length ACTH (MC2R [3]): No activity
Substance: KKRRPVKVYP (synthetic adrenocorticotropin hormone analog ACTH(15-24) peptide, human ACTH residues 15-24, ACTH antagonist polypeptide) [ACTH antagonist polypeptide, residues 15-24 of human ACTH]

inhibition of ACTH(1-24) stimulation (MC2R [1]; analog at 10^-6 M co-incubated with ACTH(1-24)): 50%
inhibition of ACTH(1-24) activation of hMC2R (MC2R [1]; [6]): no effect
Substance: KPVGKKRRPVKVYP (synthetic adrenocorticotropin hormone analog ACTH(11-24) peptide, human ACTH residues 11-24) [ACTH analog ACTH(11-24), reference compound]

Substance: NAc-SYSMEHFRWGKPV-NH2 [α-MSH]
activation of MC2R (previous studies) (MC2R [4]): cannot activate

inhibition of ACTH(1-24) activation of hMC2R (MC2R [1]; [5]): did not block
inhibition of ACTH(1-24) activation of hMC2R (MC2R [1]; analog at 10^-6 M co-incubated with ACTH(1-24) 10^-6 to 10^-12 M, listed as ACTH(17-24)): no inhibitory effect
MC2R activation relative to full-length ACTH (MC2R [3]): No activity
Substance: RRPVKVYP (synthetic adrenocorticotropin hormone analog ACTH(17-24) peptide, human ACTH residues 17-24) [ACTH analog ACTH(17-24)]

MC2R activation relative to full-length ACTH (MC2R [3]): No activity
Substance: SYSMEAAAAGKPVGKKRRPVKVYP (synthetic adrenocorticotropin hormone (ACTH) analog)

MC2R activation relative to full-length ACTH (MC2R [3]): No activity
Substance: SYSMEHARWGKPVGKKRRPVKVYP (synthetic adrenocorticotropin hormone (ACTH) analog)

MC2R activation relative to full-length ACTH (MC2R [3]): No activity
Substance: SYSMEHFAWGKPVGKKRRPVKVYP (synthetic adrenocorticotropin hormone (ACTH) analog)

MC2R activation relative to full-length ACTH: fold drop in activity (MC2R [3]): 400 fold drop
Substance: SYSMEHFRWAAAAAKKRRPVKVYP (synthetic adrenocorticotropin hormone (ACTH) analog)

MC2R activation relative to full-length ACTH (MC2R [3]): No activity
Substance: SYSMEHFRWGKPVGAAAAAVKVYP (synthetic adrenocorticotropin hormone (ACTH) analog)

MC2R activation relative to full-length ACTH: fold drop in activity (MC2R [3]): 100 fold drop
Substance: SYSMEHFRWGKPVGAARRPVKVYP (synthetic adrenocorticotropin hormone (ACTH) analog)

MC2R activation relative to full-length ACTH: fold drop in activity (MC2R [3]): 100 fold drop
Substance: SYSMEHFRWGKPVGKKAAAVKVYP (synthetic adrenocorticotropin hormone (ACTH) analog)

MC2R activation relative to full-length ACTH (MC2R [3]): Full activity
Substance: SYSMEHFRWGKPVGKKRRPVKVYP [reference compound]
activation of MC2R (previous studies) (MC2R [4]; listed as ACTH(1-24)): as potent an activator of MC2R as ACTH(1-39); also recorded: as fully as full-length human ACTH
activation of hMC2R (cAMP production) by analog incubated alone (MC2R [3]; 10^-6 to 10^-12 M, listed as ACTH(1-24)): robust standard curve; also recorded: produced cAMP in a dose dependent manner

Substance: SYSMEHFRWGKPVGKRAAWVKVYP (synthetic adrenocorticotropin hormone (ACTH) analog AT814 with modified KKRRP motif) [reference compound]
inhibition of ACTH(1-24) activation of hMC2R (MC2R [1]; [5]): competitive inhibitor; also recorded: completely inhibited
inhibition of ACTH(1-24) activation of hMC2R (MC2R [1]; [6]): ineffective; also recorded: no inhibitory effect
activation of human MC4R (cAMP production) (human MC4R): can activate; also recorded: stimulated the production of cAMP in a dose dependent manner
